Assay results: article PMC4983199 (Cell, 2016)
Residue numbers refer to the chain shown, from its start.

Key:
[1] = biological target: T1, ZIKV E protein domain III (DIII), strain H/PF/2013 (Zika virus H/PF/2013); assay: BLI
T1 chain: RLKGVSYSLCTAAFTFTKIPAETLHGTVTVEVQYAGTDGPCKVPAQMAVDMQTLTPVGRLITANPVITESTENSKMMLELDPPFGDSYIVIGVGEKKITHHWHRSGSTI

[2] = biological target: T1, ZIKV E protein domain III (DIII), …; assay: cell-based or functional assay
[3] = biological target: ZIKV E protein (recombinant, ectodomain, strain H/PF/2013) (Zika virus H/PF/2013, UniProt A0A024B7W1); assay: ELISA
[4] = biological target: ZIKV subviral particles (SVPs, prM-E), strain H/PF/2013 (Zika virus H/PF/2013, UniProt A0A024B7W1); assay: ELISA

Sequence of ZIKV E protein (recombinant, ectodomain, strain H/PF/2013) (A0A024B7W1 whole entry, looked up, the tested form may be a part): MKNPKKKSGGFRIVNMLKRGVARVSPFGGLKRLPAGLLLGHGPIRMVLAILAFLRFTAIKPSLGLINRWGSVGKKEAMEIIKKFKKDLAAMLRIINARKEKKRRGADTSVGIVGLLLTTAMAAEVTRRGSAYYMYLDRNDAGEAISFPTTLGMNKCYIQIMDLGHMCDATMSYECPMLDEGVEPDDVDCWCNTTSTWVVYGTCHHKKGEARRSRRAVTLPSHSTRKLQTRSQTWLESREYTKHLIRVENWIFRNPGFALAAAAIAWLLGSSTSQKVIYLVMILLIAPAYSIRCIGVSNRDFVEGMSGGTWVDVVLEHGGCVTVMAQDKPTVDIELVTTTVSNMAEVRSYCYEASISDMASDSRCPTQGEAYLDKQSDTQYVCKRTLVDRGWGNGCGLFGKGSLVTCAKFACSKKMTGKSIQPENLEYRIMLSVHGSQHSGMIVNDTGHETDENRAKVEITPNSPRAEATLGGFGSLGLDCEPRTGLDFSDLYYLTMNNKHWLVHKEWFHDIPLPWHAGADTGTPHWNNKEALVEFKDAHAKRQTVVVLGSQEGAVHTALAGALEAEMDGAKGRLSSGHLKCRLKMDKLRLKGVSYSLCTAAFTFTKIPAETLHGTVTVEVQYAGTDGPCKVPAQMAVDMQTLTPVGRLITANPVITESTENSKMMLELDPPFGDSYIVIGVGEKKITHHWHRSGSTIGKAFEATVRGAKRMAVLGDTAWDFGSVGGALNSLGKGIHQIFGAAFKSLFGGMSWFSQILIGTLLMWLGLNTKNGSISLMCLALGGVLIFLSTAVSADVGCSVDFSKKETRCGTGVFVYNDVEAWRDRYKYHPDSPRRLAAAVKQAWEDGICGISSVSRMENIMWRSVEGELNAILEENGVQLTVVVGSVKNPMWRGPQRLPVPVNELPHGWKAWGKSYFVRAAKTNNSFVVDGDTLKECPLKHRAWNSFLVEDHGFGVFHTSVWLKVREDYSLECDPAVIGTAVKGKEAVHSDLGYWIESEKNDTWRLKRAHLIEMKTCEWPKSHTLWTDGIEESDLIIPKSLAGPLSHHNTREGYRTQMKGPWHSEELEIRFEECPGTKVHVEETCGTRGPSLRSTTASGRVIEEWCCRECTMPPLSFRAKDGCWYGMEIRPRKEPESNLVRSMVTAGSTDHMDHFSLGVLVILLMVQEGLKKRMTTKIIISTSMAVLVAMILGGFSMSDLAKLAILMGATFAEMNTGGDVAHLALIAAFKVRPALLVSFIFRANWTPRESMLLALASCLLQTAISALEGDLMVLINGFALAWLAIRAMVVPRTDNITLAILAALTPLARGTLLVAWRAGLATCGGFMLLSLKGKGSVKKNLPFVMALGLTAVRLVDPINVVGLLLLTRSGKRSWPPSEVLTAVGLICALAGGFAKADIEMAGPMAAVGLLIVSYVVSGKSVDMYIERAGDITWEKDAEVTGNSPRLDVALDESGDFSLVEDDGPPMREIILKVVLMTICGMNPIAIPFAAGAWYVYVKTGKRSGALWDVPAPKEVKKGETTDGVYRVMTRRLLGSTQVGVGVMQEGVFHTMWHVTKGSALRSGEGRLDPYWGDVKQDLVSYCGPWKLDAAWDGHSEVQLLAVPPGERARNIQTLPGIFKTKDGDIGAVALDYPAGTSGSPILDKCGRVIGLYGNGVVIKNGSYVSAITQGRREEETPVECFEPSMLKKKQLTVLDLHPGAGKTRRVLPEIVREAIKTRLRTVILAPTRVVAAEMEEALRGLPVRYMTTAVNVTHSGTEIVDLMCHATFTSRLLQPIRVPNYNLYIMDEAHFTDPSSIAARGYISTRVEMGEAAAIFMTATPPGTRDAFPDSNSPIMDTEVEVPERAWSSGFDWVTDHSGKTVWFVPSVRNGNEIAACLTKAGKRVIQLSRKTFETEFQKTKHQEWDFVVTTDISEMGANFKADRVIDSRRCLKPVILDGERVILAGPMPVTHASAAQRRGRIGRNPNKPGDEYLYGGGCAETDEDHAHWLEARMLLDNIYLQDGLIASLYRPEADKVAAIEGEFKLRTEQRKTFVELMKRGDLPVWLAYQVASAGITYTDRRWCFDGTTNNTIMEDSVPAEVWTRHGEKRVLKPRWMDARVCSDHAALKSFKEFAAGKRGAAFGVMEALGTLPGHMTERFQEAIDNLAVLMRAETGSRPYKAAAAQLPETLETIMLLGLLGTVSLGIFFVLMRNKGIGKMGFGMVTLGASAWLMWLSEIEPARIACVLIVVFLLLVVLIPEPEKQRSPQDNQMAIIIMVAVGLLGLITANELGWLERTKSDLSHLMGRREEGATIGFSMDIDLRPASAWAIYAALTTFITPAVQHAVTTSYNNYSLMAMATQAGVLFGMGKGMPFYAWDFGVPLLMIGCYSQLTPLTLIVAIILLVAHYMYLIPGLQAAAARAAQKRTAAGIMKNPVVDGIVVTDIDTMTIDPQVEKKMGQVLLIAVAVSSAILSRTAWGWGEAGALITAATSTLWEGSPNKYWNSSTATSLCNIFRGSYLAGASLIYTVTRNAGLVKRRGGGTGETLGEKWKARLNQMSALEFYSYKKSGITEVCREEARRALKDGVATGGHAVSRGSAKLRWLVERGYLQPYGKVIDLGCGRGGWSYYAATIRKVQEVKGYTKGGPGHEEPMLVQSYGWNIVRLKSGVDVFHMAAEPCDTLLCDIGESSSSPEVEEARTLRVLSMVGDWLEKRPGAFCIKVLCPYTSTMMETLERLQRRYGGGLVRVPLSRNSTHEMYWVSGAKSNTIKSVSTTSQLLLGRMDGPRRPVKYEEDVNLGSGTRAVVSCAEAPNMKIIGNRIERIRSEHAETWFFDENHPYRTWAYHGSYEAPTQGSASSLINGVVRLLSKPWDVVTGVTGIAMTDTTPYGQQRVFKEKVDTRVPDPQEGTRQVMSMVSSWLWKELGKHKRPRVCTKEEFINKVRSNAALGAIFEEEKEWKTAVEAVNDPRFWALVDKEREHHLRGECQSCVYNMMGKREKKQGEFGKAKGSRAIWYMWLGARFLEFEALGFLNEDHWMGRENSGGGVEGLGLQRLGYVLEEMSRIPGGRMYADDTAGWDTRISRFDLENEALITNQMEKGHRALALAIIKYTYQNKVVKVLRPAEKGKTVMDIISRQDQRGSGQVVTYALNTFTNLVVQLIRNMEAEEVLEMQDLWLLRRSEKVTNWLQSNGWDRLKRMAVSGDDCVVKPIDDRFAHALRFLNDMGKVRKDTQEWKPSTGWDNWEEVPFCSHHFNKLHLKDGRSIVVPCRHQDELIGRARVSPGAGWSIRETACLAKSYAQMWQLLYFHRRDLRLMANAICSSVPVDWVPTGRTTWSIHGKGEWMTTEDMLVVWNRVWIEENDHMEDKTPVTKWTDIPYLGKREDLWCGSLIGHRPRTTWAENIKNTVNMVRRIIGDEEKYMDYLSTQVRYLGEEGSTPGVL

B1: ZV-2 mouse monoclonal antibody (antibody, V domains shown)
VH: QVQLQESGAELMKPGASVKLSCKTSGYTFIGYWIEWLKQRPGHGLEWVGEIFPGSGRTKYNEKFKGRATFTADTSSNMAYMQLSSLTTEDSAIYYCARYYYGSYYALDYWGQGTSVTVSS
VL: DIVMTQSPSSLSVSAGEKVTLSCKSSQSLLHSGNQKNYLAWYQQKPGQAPKLLIYGASTRESGVPDRFTGSGSGTDFTLTISSVQAEDLAVYYCQNDHSYPLTFGAGTKLELK
For B1, the Kd [1] was 0.266 ± 0.042 µM and the t1/2 [1] was 0.3 min.

B2: ZV-54 mouse monoclonal antibody (antibody, V domains shown)
VH: QVQLQQSGVGLARPGTSVKLSCKASGYSFTTYGISWVTQRPGQGLEWIGVIYPRSNNTYYNERFRGKATLTADKSSSSAYLELRGLTAEDSAVYFCARENYGSVYWGQGTTLTVSS
VL: DIVMTQSQKFMSTSVGDRVTITCKASQSVGTAVAWYHQKPGQSPKLLIYSASNRYTGVPDRFTGSGSGTDFTLTITYMQSEDLADYFCQQFSNYPFTFGGGTKLEIK
In the case of B2, the Kd [1] is reported as 0.0079 ± 0.0002 µM, the t1/2 [1] is reported as 33 min and the “FRNT50, focus reduction neutralization of ZIKV H/PF/2013 on Vero cells” value (from here on “FRNT50, focus reduction neutralization”) [2] is reported as 87 ng/mL. B2: binds [3]; binds [4].

B3: ZV-67 mouse monoclonal antibody (antibody, V domains shown)
VH: B2 VH with V2A, V9T, T16A, S28T, T31S, P41A, N56G, R63K, L81M
VL: B2 VL with T20S, S28N, H37Q, T76S, Y77N, N93S, F96Y
In the case of B3, the Kd [1] is reported as 0.0088 ± 0.0017 µM, the t1/2 [1] is reported as 13.8 min and the “FRNT50, focus reduction neutralization” value [2] is reported as 143 ng/mL.

B4: ZV-48 mouse monoclonal antibody (antibody, V domains shown)
VH: QVQLQQPGAELLKPGASVKLSCKASGYSFSNYWMHWVKQRPGQGPEWIGMIHPNSGNTKYNEKFKNKATLTVDKSSSMVYMQLSSLTSEDSAVFYCARLGNDMDYWGQGTSVTVSS
VL: DIVMSQSPSSLAVSVGEKITMSCKSSQSLLYSNNEKNYLAWYQQKPGQSPKLLIYWASARDSGVPDRFTGSGSGTDFTLTISSVKAEDLAVFYCQQYYSYPYTFGGGTKLEIK
For B4, the Kd [1] was 0.035 ± 0.0008 µM, the t1/2 [1] was 3.2 min and the “FRNT50, focus reduction neutralization” value [2] was 485 ng/mL. B4: binds [3].
